Measurements reported in patent publication US20130156779A1 (GlaxoSmithKline, published 2013).

B1: Humanized 1D9 …B™ antibody (antibody, human IgG1, kappa)
heavy: QVQLVQSGAEVKKPGASVKVSCKASGYTFTSYWMHWVRQAPGQGLEWMGVIDPSDGYSHYNQKFKGKVTLTVDTSISTAYMELSRLRSDDTAVYYCAGGLAGTLDYWGQGTTVTVSSASTKGPSVFPLAPSSKSTSGGTAALGCLVKDYFPEPVTVSWNSGALTSGVHTFPAVLQSSGLYSLSSVVTVPSSSLGTQTYICNVNHKPSNTKVDKKVEPKSCDKTHTCPPCPAPELLGGPSVFLFPPKPKDTLMISRTPEVTCVVVDVSHEDPEVQFKWYVDGVEVHNAKTKPREEQFNSTFRVVSVLTVLHQDWLNGKEYKCKVSNKALPAPIEKTISKTKGQPREPQVYTLPPSREEMTKNQVSLTCLVKGFYPSDIAVEWESSGQPENNYKTTPPMLDSDGSFFLYSKLTVDKSRWQQGNIFSCSVMHEALHNHYTQKSLSLSPGK
light: DIQMTQSPSSLSASVGDRVTITCRSSQSIVHSSGNTYLQWFQQKPGKAPKLLIYKVSNRFSGVPSRFSGSGSGTDFTLTISSLQPEDFAVYYCFQGSHVPWTFGQGTKLEIKRTVAAPSVFIFPPSDEQLKSGTASVVCLLNNFYPREAKVQWKVDNALQSGNSQESVTEQDSKDSTYSLSSTLTLSKADYEKHKVYACEVTHQGLSSPVTKSFNRGEC
modifications: non-fucosylated glycans on the marked N* residue
notes: Chimeric IgG1/IgG3 Fc, expressed in FUT8- cells; also called humanized …B 1D9 antibody; humanized 1D9 H6L2 …B antibody
B2: Humanized 1D9 Fc disabled antibody (antibody, V domains shown)
VH: QVQLVQSGAEVKKPGASVKVSCKASGYTFTSYWMHWVRQAPGQGLEWMGVIDPSDGYSHYNQKFKGKVTLTVDTSISTAYMELSRLRSDDTAVYYCAGGLAGTLDYWGQGTTVTVSS
VL: DIQMTQSPSSLSASVGDRVTITCRSSQSIVHSSGNTYLQWFQQKPGKAPKLLIYKVSNRFSGVPSRFSGSGSGTDFTLTISSLQPEDFAVYYCFQGSHVPWTFGQGTKLEIKR
notes: Humanized VH fused to a modified Fc domain incapable of mediating CDC/ADCC; also called humanized 1D9 H6L2 Fc disabled antibody
B3: Humanized 15D5 antibody (H4L1) (antibody, human IgG1, V domains shown)
VH: QVQLVQSGAEVKKPGASVKVSCKASGYTFTDYNMNWVRQAPGQGLEWMGGINPNYGTTVYNQKFKGKVTLTVDTSISTAYMELSRLRSDDTAVYYCARMTTIVPFDYWGQGTTVTVSS
VL: DIQMTQSPSSLSASVGDRVTITCRASQDISNYLNWYQQKPGKAPKLLIYYTSTLHSGVPSRFSGSGSGTDYTFTISSLQPEDIATYYCQQGYTLPWTFGGGTKVEIKR
notes: Human IgG1; also called h15D5
B4: Chimeric 15D5 antibody (antibody, human IgG1, V domains shown)
VH: EFQLQQSGPELVKPGASVKISCKASGYSFTDYNMNWVKQNNGKSLEWIGGINPNYGTTVYNQKFKGKATLTVDQSSSTAYMQLVSLTSEDSAVYYCARMTTIVPFDYWGQGTTLTVSS
VL: DIQMTQTTFSLSASLGDRVTISCRASQDISNYLNWYQQKPDGTVKLLIYYTSTLHSGVPSRFSGSGSGTDYFLTIRNLEEEDIATYFCQQGYTLPWTFGGGTKLDIK
notes: To be rechecked; also called Ch15D5; ch15D5

Experiments:
Human HER3 receptor [1] = molecular target: T1, Human HER3 receptor (human, UniProt P21860 20-1342); assay: cell-based or functional assay
Human HER3 receptor [2] = molecular target: T1, Human HER3 receptor; assay: cell-based or functional assay; remark: listed apart in the source
Human HER3 receptor [3] = molecular target: T1, Human HER3 receptor; assay: cell-based or functional assay; remark: listed apart in the source
Human HER3 ECD domain II [4] = molecular target: T2, Human HER3 ECD domain II (human, UniProt P21860 184-329); assay: DELFIA, plate coated with HER3 Domain II 1ug/ml
T2 construct: also called D2; Domain 2
Protocol: Dissociation Enhanced Lanthanide Fluorescence Immunoassay (DELFIA) for detection of the anti-HER3 antibodies to HER3 extracellular domain (ECD) was used. The DELFIA procedures were as follows: white Maxisorp 96-well plates (Nunc #437796) were coated with 100 ul/well of 1 ug/ml HER-3 ECD full length or HER3Domain I, II, III and IV in 0.1M carbonate buffer pH 9.5 overnight at 4° C. These plates were blocked with casein in TBS (Thermo Scientific #37532 lot#JD121074). The neat hybridoma supernatant, or the purified anti-HER3 antibodies diluted in Perkin Elmer #4002-0010 Assay Buffer from 10 ug/ml (or 100 ug/ml) to 0.01 ug/ml, or the PK serum samples with a minimum of 3 dilutions (100 ul/well) were added to the plate. These samples were incubated for 2 hours at room temperature while on a plate shaker or overnight at 4° C. […] The plate was washed 4 times with tris-buffer plus 0.05% tween-20 (Perkin Elmer #4010-0010) on a BIOTEK™ plate washer following each antibody incubation step. 100 ul/well of DELFIA enhancement solution (Perkin Elmer 1244-105) was added for 5 minutes at room temperature. […] Antibody binding was recorded as europium counts per well.

[5] = molecular target: T3, Full-length human HER3 extracellular domain (ECD) (human, UniProt P21860 20-643); assay: BIACORE SPR, mAb captured on protein A, ECD as analyte, 25 C
T3 construct: also called human HER3 ECD; HER-3 ECD full length
Protocol: (§1) Protein A was immobilised on a CM5 chip by primary amine coupling to a level of ˜1300 resonance units (RU′s), humanized antibodies were then captured on this chip, All antibodies were captured to a similar level (100-200 RU's). […] Alternatively, the full-length, rat HER3 ECD or the full-length cynomolgus monkey ECD were passed over the chip at 10 nM, 5 nM, 2.5 nM, 1:25nM, 0.625 nM and 0.3125nM. An injection of buffer alone was used to double reference the binding curves as indicated in Example 1. Regeneration of this surface was achieved using 10 mM Glycine buffer pH 1.5. The binding data was fitted to the 1:1 model using BIACORE™ Evaluation software. Runs were carried out at 25° C. on a BIACORE™ T3000 using HBS-EP as running buffer.

[6] = molecular target: T3, Full-length human HER3 extracellular …; assay: as above; remark: listed apart in the source
Protocol: as §1

[7] = molecular target: T4, Full-length rat HER3 extracellular domain (ECD) (rat, UniProt Q62799 20-643); assay: as above
T4 construct: extracellular domain; also called Rat HER3 ECD
Protocol: as §1

[8] = molecular target: T5, Full-length cynomolgus monkey HER3 extracellular domain (ECD) (cynomolgus monkey, UniProt G7PIG5 20-643); assay: as above
T5 construct: extracellular domain; also called Cynomolgus monkey HER3 ECD
Protocol: as §1

[9] = molecular target: T3, Full-length human HER3 extracellular …; assay: affinity summary table, method not given
Human HER3 ECD domain II [10] = molecular target: T2, Human HER3 ECD domain II; assay: affinity summary table, method not given
[11] = molecular target: T3, Full-length human HER3 extracellular …; assay: BIACORE 3000 SPR, mAb captured by anti-human Fc, ECD as analyte, 25 C
Protocol: The binding kinetics of these antibodies for was assessed using a BIACORE™ 3000. Antibodies were captured on a CM5 biosensor chip to which an immobilized anti-human IgG (Fc specific) BIACORE™ (GE Healthcare cat# BR-1008-39) monoclonal antibody had been conjugated using supplied coupling buffer (9000 RU). Full-length human HER3 ECD concentrations were injected for 120s at a flow rate of 30 ul/min. Biosensor chips were regenerated as described in Example 1. Kinetics were determined by global fitting of data to the 1:1 Langmuir model using BIACORE™ Evaluation software. Analytical runs were carried out at 25° C. using FIBS-EP as the running buffer.
Buffer cycle and double referencing were performed as described in Example 1; and 5) Regenerate biosensor chips with BIACORE™ optimized buffers.

[12] = molecular target: T3, Full-length human HER3 extracellular …; assay: BIACORE 2000 SPR, mAb captured, HER3 protein as analyte, 25 C
Protocol: (§2) Mouse monoclonal antibodies were analysed using rabbit anti-mouse (RAM) IgG (GE Healthcare BR-1008-38) covalently coupled to a BIACORE™ CM5 chip (GE HEalthcare BR-1000-14) by primary amine chemistry (NHS/EDC activated) (GE Healthcare amine coupling kit BR-1000-50). Chimeric and humanized competitor monoclonal antibodies were analyzed using anti-human, Fc specific monoclonal (GE Healthcare BR-1008-39) similarly coupled. Each chip was also prepared with a reference surface to which no capture reagent antibody is coupled. Sensorgrams for cycles run with differing analyte concentrations are acquired for kinetic analysis. A cycle consists of capturing the monoclonal on the surface, a short stabilization period with flowing run buffer followed by binding of a defined concentration of analyte (ECD or sub-domain protein). Injection of analyte for surface binding (3-4 minutes) yields the association part of curve. This is followed by buffer only flow (3-4 minutes) which allows recording of dissociation data.
(§3) The general method for affinity analysis is as follows. First, chips were prepared and tested for reasonance units (RU) captured for several monoclonal antibody concentrations. Kinetic cycles were then run in which monoclonal antibody was captured to a level of approximately 100RU, analyte protein was allowed to bind then dissociate and the surface was regenerated to remove all but covalently coupled protein. RAM chips were regenerated with capture kit supplied 100 mM glycine pH1.7 and anti-human chips with capture kit supplied 3M MgCl₂. […] Several buffer cycles were run prior to analyte protein to ensure cycle consistency and in some experiments a buffer cycle is used a “double reference[.]” Analytes used were human full length HER3 extra cellular domain (ECD), separate sub-domains of the extracellular portion of human HER3 (D1, D2, D3, D4), or combination HER3 domain proteins (D1-2 and D2-3).

Human HER3 ECD domain II [13] = molecular target: T2, Human HER3 ECD domain II; assay: as above
Protocol: as §2, §3

T2 sequence (P21860 184-329): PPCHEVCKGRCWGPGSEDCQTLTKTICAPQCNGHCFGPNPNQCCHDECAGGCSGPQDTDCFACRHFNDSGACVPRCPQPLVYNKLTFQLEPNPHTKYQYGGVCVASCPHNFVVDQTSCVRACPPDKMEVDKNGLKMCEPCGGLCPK
T1 sequence (P21860 20-1342 limits assumed): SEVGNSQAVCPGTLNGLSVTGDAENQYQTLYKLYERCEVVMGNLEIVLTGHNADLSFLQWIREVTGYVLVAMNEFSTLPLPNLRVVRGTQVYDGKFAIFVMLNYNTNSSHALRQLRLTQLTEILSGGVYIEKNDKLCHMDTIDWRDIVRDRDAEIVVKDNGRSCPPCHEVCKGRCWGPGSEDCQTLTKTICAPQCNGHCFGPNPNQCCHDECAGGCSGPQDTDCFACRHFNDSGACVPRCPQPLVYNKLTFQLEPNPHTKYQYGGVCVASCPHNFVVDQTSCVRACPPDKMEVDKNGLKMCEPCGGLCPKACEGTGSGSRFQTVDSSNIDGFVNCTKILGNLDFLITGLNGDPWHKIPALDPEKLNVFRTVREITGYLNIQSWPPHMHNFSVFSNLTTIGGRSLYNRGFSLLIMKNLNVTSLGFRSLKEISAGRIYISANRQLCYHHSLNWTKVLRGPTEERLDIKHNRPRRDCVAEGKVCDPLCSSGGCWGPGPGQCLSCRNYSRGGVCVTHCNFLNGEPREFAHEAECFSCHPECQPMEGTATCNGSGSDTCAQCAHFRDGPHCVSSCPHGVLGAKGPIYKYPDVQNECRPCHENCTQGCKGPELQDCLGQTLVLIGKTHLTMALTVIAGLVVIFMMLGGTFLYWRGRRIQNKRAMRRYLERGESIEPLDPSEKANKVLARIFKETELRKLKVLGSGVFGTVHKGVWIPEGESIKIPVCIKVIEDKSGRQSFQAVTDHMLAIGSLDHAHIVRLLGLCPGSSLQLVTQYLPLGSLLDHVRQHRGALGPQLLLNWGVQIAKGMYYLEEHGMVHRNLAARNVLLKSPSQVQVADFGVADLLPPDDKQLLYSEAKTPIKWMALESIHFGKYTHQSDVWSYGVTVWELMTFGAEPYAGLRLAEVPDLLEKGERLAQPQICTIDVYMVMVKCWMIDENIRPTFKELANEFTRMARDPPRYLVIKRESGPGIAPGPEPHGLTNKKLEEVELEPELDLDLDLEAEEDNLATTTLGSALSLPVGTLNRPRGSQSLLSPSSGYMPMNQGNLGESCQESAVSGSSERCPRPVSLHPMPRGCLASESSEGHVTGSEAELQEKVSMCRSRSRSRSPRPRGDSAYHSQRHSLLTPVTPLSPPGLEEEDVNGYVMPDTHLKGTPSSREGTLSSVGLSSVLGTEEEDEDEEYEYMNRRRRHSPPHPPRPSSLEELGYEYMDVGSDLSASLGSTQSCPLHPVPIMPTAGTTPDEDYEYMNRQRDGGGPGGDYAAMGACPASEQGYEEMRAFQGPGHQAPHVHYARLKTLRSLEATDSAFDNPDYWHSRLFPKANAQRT
T3 sequence (P21860 20-643): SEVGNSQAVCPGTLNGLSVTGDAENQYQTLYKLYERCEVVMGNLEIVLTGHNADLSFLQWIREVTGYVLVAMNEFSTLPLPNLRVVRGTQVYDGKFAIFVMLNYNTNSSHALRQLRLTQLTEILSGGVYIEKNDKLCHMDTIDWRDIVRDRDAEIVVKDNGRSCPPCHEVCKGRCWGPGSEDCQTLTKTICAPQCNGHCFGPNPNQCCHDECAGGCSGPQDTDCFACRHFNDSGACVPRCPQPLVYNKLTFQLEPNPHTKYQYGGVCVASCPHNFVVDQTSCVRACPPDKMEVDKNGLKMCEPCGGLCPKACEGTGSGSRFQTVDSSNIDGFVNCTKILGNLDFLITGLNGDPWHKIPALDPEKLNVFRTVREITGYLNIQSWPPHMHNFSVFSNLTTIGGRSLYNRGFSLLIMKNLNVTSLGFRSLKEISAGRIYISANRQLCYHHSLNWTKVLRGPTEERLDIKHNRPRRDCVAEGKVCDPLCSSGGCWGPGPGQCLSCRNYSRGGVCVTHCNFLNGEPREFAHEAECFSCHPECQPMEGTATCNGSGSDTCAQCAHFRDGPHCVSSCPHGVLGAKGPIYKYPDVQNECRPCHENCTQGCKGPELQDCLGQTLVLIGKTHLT
T4 sequence (Q62799 20-643): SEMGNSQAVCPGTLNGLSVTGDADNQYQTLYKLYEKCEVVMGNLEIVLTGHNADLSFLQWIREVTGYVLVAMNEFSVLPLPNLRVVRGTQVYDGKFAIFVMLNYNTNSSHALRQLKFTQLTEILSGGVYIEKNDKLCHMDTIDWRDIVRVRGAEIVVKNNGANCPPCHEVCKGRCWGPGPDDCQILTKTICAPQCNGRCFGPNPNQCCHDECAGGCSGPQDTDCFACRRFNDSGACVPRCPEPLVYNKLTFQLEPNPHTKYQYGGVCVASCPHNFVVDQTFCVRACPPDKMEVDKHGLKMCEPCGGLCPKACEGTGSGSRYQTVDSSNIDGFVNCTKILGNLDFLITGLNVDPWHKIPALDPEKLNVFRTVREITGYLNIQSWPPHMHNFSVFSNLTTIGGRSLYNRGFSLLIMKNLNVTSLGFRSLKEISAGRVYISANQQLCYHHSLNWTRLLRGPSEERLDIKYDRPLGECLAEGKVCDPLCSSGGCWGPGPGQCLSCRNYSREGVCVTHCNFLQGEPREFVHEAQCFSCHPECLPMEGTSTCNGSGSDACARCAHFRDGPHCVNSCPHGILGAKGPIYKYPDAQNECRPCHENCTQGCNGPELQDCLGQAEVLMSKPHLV
T5 sequence (G7PIG5 entry or part of it): as the sequence (P21860 20-643) above, with R145K, R151Q, P166L, S180P, H388Y counted along it

Binder	Phospho-HER3 ELISA IC50, heregulin induced, BxPC3 cells (Human HER3 receptor [2]) [µg/mL]	Phospho-HER3 ELISA IC50, heregulin induced, CHL-1 cells (Human HER3 receptor [2]) [µg/mL]	Phospho-HER3 ELISA IC50, heregulin induced, N87 cells (Human HER3 receptor [2]) [µg/mL]	Phospho-HER3 ELISA IC50, heregulin induced, SK-BR-3 cells (Human HER3 receptor [2]) [µg/mL]	Phospho-AKT ELISA IC50, heregulin induced, BxPC3 cells (Human HER3 receptor [3]) [µg/mL]	Kd [5] [nM]	koff [5] [s⁻¹]	kon [5] [M⁻¹ s⁻¹]	Kd [9] [nM]	Kd (Human HER3 ECD domain II [10]) [nM]	Kd [11] [nM]	koff [11] [s⁻¹]	kon [11] [M⁻¹ s⁻¹]	further results
B1	0.0026	0.0311	0.0094	0.0025	0.0108	2.06	0.00233	1.13e+06						IC50 of heregulin induced phospho-AKT formation, BxPC3 cells (Human HER3 receptor [1]): 0.0026 µg/mL; binding result (Human HER3 ECD domain II [4]): no binding (tested: 10 ug/ml)
B2	0.0107	0.0399	0.0297	0.0044	0.0316	4.49	0.00122	271000						Kd [6]: 4.49 nM; koff [6]: 0.00122 s⁻¹; kon [6]: 271000 M⁻¹ s⁻¹; Kd [7]: 3.37 nM; koff [7]: 0.0011 s⁻¹; kon [7]: 326000 M⁻¹ s⁻¹; Kd [8]: 1.73 nM; koff [8]: 0.00189 s⁻¹; kon [8]: 1.09e+06 M⁻¹ s⁻¹
B3									3.5	0.074	2.62	0.000196	74900	
B4									~1	0.02	3.19	0.00014	44000	Kd [12]: 0.87 nM; kon [12]: 67900 M⁻¹ s⁻¹; Kd (Human HER3 ECD domain II [13]): 0.02 nM; kon (Human HER3 ECD domain II [13]): 3.82e+06 M⁻¹ s⁻¹
